Data reported in the Human Domainome abundance scans (Beltran et al. 2025).
± gives the uncertainty stated by the source.

B1: Histone H1t, residues 44 to 112; numbered along this chain, P22492 (parent)
chain: VSKLITEALSVSQERVGMSLVALKKALAAAGYDVEKNNSRIKLSLKSLVNKGILVQTRGTGASGSFKLS

Variants of: B1
Test: abundance fitness (aPCA) (normalised: wild type 0, dead -1); higher = more abundant; growth selection in yeast, the domain comes from the species named
Details: Homo sapiens

| Variant | abundance fitness |
| --- | --- |
| VTKLITEALSVSQERVGMSLVALKKALAAAGYDVEKNNSRIKLSLKSLVNKGILVQTRGTGASGSFKLS [S2T] | -0.145 ± 0.19 |
| VPKLITEALSVSQERVGMSLVALKKALAAAGYDVEKNNSRIKLSLKSLVNKGILVQTRGTGASGSFKLS [S2P] | -0.456 ± 0.18 |
| VAKLITEALSVSQERVGMSLVALKKALAAAGYDVEKNNSRIKLSLKSLVNKGILVQTRGTGASGSFKLS [S2A] | -0.404 ± 0.3 |
| VHKLITEALSVSQERVGMSLVALKKALAAAGYDVEKNNSRIKLSLKSLVNKGILVQTRGTGASGSFKLS [S2H] | -0.474 ± 0.094 |
| VMKLITEALSVSQERVGMSLVALKKALAAAGYDVEKNNSRIKLSLKSLVNKGILVQTRGTGASGSFKLS [S2M] | -0.316 ± 0.038 |
| VYKLITEALSVSQERVGMSLVALKKALAAAGYDVEKNNSRIKLSLKSLVNKGILVQTRGTGASGSFKLS [S2Y] | -0.185 ± 0.039 |
| VNKLITEALSVSQERVGMSLVALKKALAAAGYDVEKNNSRIKLSLKSLVNKGILVQTRGTGASGSFKLS [S2N] | 0.051 ± 0.066 |
| VDKLITEALSVSQERVGMSLVALKKALAAAGYDVEKNNSRIKLSLKSLVNKGILVQTRGTGASGSFKLS [S2D] | 0.251 ± 0.12 |
| VEKLITEALSVSQERVGMSLVALKKALAAAGYDVEKNNSRIKLSLKSLVNKGILVQTRGTGASGSFKLS [S2E] | 0.566 ± 0.22 |
| VVKLITEALSVSQERVGMSLVALKKALAAAGYDVEKNNSRIKLSLKSLVNKGILVQTRGTGASGSFKLS [S2V] | -0.652 ± 0.1 |
| VQKLITEALSVSQERVGMSLVALKKALAAAGYDVEKNNSRIKLSLKSLVNKGILVQTRGTGASGSFKLS [S2Q] | -0.344 ± 0.15 |
| VLKLITEALSVSQERVGMSLVALKKALAAAGYDVEKNNSRIKLSLKSLVNKGILVQTRGTGASGSFKLS [S2L] | -0.398 ± 0.029 |
| VCKLITEALSVSQERVGMSLVALKKALAAAGYDVEKNNSRIKLSLKSLVNKGILVQTRGTGASGSFKLS [S2C] | -0.438 ± 0.17 |
| VIKLITEALSVSQERVGMSLVALKKALAAAGYDVEKNNSRIKLSLKSLVNKGILVQTRGTGASGSFKLS [S2I] | -0.234 ± 0.039 |
| VFKLITEALSVSQERVGMSLVALKKALAAAGYDVEKNNSRIKLSLKSLVNKGILVQTRGTGASGSFKLS [S2F] | -0.383 ± 0.03 |
| VKKLITEALSVSQERVGMSLVALKKALAAAGYDVEKNNSRIKLSLKSLVNKGILVQTRGTGASGSFKLS [S2K] | 0.251 ± 0.055 |
| VSKLMTEALSVSQERVGMSLVALKKALAAAGYDVEKNNSRIKLSLKSLVNKGILVQTRGTGASGSFKLS [I5M] | -0.33 ± 0.043 |
| VSKLTTEALSVSQERVGMSLVALKKALAAAGYDVEKNNSRIKLSLKSLVNKGILVQTRGTGASGSFKLS [I5T] | -0.985 ± 0.16 |
| VSKLFTEALSVSQERVGMSLVALKKALAAAGYDVEKNNSRIKLSLKSLVNKGILVQTRGTGASGSFKLS [I5F] | -0.372 ± 0.038 |
| VSKLHTEALSVSQERVGMSLVALKKALAAAGYDVEKNNSRIKLSLKSLVNKGILVQTRGTGASGSFKLS [I5H] | -1.46 ± 0.39 |

| Variant | abundance fitness |
| --- | --- |
| VSKLVTEALSVSQERVGMSLVALKKALAAAGYDVEKNNSRIKLSLKSLVNKGILVQTRGTGASGSFKLS [I5V] | -0.267 ± 0.049 |
| VSKLWTEALSVSQERVGMSLVALKKALAAAGYDVEKNNSRIKLSLKSLVNKGILVQTRGTGASGSFKLS [I5W] | -0.46 ± 0.072 |
| VSKLPTEALSVSQERVGMSLVALKKALAAAGYDVEKNNSRIKLSLKSLVNKGILVQTRGTGASGSFKLS [I5P] | -1.16 ± 0.19 |
| VSKLQTEALSVSQERVGMSLVALKKALAAAGYDVEKNNSRIKLSLKSLVNKGILVQTRGTGASGSFKLS [I5Q] | -1.28 ± 0.27 |
| VSKLATEALSVSQERVGMSLVALKKALAAAGYDVEKNNSRIKLSLKSLVNKGILVQTRGTGASGSFKLS [I5A] | -0.705 ± 0.11 |
| VSKLLTEALSVSQERVGMSLVALKKALAAAGYDVEKNNSRIKLSLKSLVNKGILVQTRGTGASGSFKLS [I5L] | -0.244 ± 0.029 |
| VSKLGTEALSVSQERVGMSLVALKKALAAAGYDVEKNNSRIKLSLKSLVNKGILVQTRGTGASGSFKLS [I5G] | -0.942 ± 0.074 |
| VSKLETEALSVSQERVGMSLVALKKALAAAGYDVEKNNSRIKLSLKSLVNKGILVQTRGTGASGSFKLS [I5E] | -1.13 ± 0.24 |
| VSKLRTEALSVSQERVGMSLVALKKALAAAGYDVEKNNSRIKLSLKSLVNKGILVQTRGTGASGSFKLS [I5R] | -1.24 ± 0.12 |
| VSKLDTEALSVSQERVGMSLVALKKALAAAGYDVEKNNSRIKLSLKSLVNKGILVQTRGTGASGSFKLS [I5D] | -1.04 ± 0.22 |
| VSKLCTEALSVSQERVGMSLVALKKALAAAGYDVEKNNSRIKLSLKSLVNKGILVQTRGTGASGSFKLS [I5C] | -0.415 ± 0.083 |
| VSKLNTEALSVSQERVGMSLVALKKALAAAGYDVEKNNSRIKLSLKSLVNKGILVQTRGTGASGSFKLS [I5N] | -0.664 ± 0.15 |
| VSKWITEALSVSQERVGMSLVALKKALAAAGYDVEKNNSRIKLSLKSLVNKGILVQTRGTGASGSFKLS [L4W] | -0.506 ± 0.32 |
| VSKLITAALSVSQERVGMSLVALKKALAAAGYDVEKNNSRIKLSLKSLVNKGILVQTRGTGASGSFKLS [E7A] | -0.996 ± 0.26 |
| VSDLITEALSVSQERVGMSLVALKKALAAAGYDVEKNNSRIKLSLKSLVNKGILVQTRGTGASGSFKLS [K3D] | -0.144 ± 0.1 |
| VSVLITEALSVSQERVGMSLVALKKALAAAGYDVEKNNSRIKLSLKSLVNKGILVQTRGTGASGSFKLS [K3V] | -0.431 ± 0.041 |
| VSCLITEALSVSQERVGMSLVALKKALAAAGYDVEKNNSRIKLSLKSLVNKGILVQTRGTGASGSFKLS [K3C] | -0.411 ± 0.063 |
| VSNLITEALSVSQERVGMSLVALKKALAAAGYDVEKNNSRIKLSLKSLVNKGILVQTRGTGASGSFKLS [K3N] | -0.139 ± 0.13 |
| VSILITEALSVSQERVGMSLVALKKALAAAGYDVEKNNSRIKLSLKSLVNKGILVQTRGTGASGSFKLS [K3I] | -0.656 ± 0.072 |
